Measurements reported in IntAct's records for PubMed 30623132.

B1: Myosin-7 (Homo sapiens), P12883 (parent)
chain: MGDSEMAVFGAAAPYLRKSEKERLEAQTRPFDLKKDVFVPDDKQEFVKAKIVSREGGKVTAETEYGKTVTVKEDQVMQQNPPKFDKIEDMAMLTFLHEPAVLYNLKDRYGSWMIYTYSGLFCVTVNPYKWLPVYTPEVVAAYRGKKRSEAPPHIFSISDNAYQYMLTDRENQSILITGESGAGKTVNTKRVIQYFAVIAAIGDRSKKDQSPGKGTLEDQIIQANPALEAFGNAKTVRNDNSSRFGKFIRIHFGATGKLASADIETYLLEKSRVIFQLKAERDYHIFYQILSNKKPELLDMLLITNNPYDYAFISQGETTVASIDDAEELMATDNAFDVLGFTSEEKNSMYKLTGAIMHFGNMKFKLKQREEQAEPDGTEEADKSAYLMGLNSADLLKGLCHPRVKVGNEYVTKGQNVQQVIYATGALAKAVYERMFNWMVTRINATLETKQPRQYFIGVLDIAGFEIFDFNSFEQLCINFTNEKLQQFFNHHMFVLEQEEYKKEGIEWTFIDFGMDLQACIDLIEKPMGIMSILEEECMFPKATDMTFKAKLFDNHLGKSANFQKPRNIKGKPEAHFSLIHYAGIVDYNIIGWLQKNKDPLNETVVGLYQKSSLKLLSTLFANYAGADAPIEKGKGKAKKGSSFQTVSALHRENLNKLMTNLRSTHPHFVRCIIPNETKSPGVMDNPLVMHQLRCNGVLEGIRICRKGFPNRILYGDFRQRYRILNPAAIPEGQFIDSRKGAEKLLSSLDIDHNQYKFGHTKVFFKAGLLGLLEEMRDERLSRIITRIQAQSRGVLARMEYKKLLERRDSLLVIQWNIRAFMGVKNWPWMKLYFKIKPLLKSAEREKEMASMKEEFTRLKEALEKSEARRKELEEKMVSLLQEKNDLQLQVQAEQDNLADAEERCDQLIKNKIQLEAKVKEMNERLEDEEEMNAELTAKKRKLEDECSELKRDIDDLELTLAKVEKEKHATENKVKNLTEEMAGLDEIIAKLTKEKKALQEAHQQALDDLQAEEDKVNTLTKAKVKLEQQVDDLEGSLEQEKKVRMDLERAKRKLEGDLKLTQESIMDLENDKQQLDERLKKKDFELNALNARIEDEQALGSQLQKKLKELQARIEELEEELEAERTARAKVEKLRSDLSRELEEISERLEEAGGATSVQIEMNKKREAEFQKMRRDLEEATLQHEATAAALRKKHADSVAELGEQIDNLQRVKQKLEKEKSEFKLELDDVTSNMEQIIKAKANLEKMCRTLEDQMNEHRSKAEETQRSVNDLTSQRAKLQTENGELSRQLDEKEALISQLTRGKLTYTQQLEDLKRQLEEEVKAKNALAHALQSARHDCDLLREQYEEETEAKAELQRVLSKANSEVAQWRTKYETDAIQRTEELEEAKKKLAQRLQEAEEAVEAVNAKCSSLEKTKHRLQNEIEDLMVDVERSNAAAAALDKKQRNFDKILAEWKQKYEESQSELESSQKEARSLSTELFKLKNAYEESLEHLETFKRENKNLQEEISDLTEQLGSSGKTIHELEKVRKQLEAEKMELQSALEEAEASLEHEEGKILRAQLEFNQIKAEIERKLAEKDEEMEQAKRNHLRVVDSLQTSLDAETRSRNEALRVKKKMEGDLNEMEIQLSHANRMAAEAQKQVKSLQSLLKDTQIQLDDAVRANDDLKENIAIVERRNNLLQAELEELRAVVEQTERSRKLAEQELIETSERVQLLHSQNTSLINQKKKMDADLSQLQTEVEEAVQECRNAEEKAKKAITDAAMMAEELKKEQDTSAHLERMKKNMEQTIKDLQHRLDEAEQIALKGGKKQLQKLEARVRELENELEAEQKRNAESVKGMRKSERRIKELTYQTEEDRKNLLRLQDLVDKLQLKVKAYKRQAEEAEEQANTNLSKFRKVQHELDEAEERADIAESQVNKLRAKSRDIGTKGLNEE

Variants of: B1
Conditions: with mypc3_human MYBPC3, Q14896
mypc3_human MYBPC3, Q14896, sequence (Q14896 whole entry): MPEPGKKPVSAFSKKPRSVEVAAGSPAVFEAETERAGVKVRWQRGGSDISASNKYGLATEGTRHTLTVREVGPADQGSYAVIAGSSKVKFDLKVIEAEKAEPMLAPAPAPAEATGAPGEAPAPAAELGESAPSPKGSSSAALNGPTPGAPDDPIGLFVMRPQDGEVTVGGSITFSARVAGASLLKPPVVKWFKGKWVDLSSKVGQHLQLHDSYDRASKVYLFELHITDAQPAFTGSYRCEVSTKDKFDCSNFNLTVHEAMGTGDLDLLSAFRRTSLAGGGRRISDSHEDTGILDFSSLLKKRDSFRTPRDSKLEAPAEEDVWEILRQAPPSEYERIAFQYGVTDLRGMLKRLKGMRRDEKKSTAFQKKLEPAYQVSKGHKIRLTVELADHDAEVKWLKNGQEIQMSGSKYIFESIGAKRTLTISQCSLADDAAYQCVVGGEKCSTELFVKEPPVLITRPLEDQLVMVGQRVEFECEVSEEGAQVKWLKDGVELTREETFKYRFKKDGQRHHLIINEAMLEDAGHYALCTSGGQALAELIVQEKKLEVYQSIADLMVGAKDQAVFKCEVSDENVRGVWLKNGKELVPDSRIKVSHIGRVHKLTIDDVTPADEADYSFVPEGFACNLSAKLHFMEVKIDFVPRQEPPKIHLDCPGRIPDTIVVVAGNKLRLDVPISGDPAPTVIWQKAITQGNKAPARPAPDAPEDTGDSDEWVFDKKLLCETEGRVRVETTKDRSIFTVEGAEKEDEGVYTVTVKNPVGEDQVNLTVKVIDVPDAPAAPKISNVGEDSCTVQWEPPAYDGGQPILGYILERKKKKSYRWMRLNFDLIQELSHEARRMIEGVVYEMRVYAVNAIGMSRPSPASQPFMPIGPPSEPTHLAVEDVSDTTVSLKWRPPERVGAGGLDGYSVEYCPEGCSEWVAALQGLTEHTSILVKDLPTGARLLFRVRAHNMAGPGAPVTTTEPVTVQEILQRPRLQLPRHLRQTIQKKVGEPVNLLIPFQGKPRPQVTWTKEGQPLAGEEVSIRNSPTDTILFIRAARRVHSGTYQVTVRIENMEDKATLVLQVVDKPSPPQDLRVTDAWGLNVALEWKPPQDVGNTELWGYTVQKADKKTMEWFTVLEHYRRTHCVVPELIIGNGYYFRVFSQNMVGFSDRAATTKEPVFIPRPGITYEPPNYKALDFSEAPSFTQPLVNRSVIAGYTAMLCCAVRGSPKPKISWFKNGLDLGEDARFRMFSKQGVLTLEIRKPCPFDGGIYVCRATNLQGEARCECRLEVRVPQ

effect of a mutation on the interaction | Variant
disrupting interaction strength | E848G
